Nine molecules from patent publication US20230226096A1 (Orna Therapeutics, Inc., priority 2020, published 2023) can be followed below.

The data set concerns HEK293 cells. It counts as cell-based, human. The following applies: luminescence from secreted Gluc in supernatant 24 hours after transfection of HEK293 cells; circular RNA encoding Gluc with the named IRES (UTR truncated to 675 nt).

B1: REV A (nucleic acid, listed as Reticuloendotheliosis virus)
DNA: GGGGTCGCCGTCCTACACATTGTTGTGACGTGCGGCCCAGATTCGAATCTGTAATAAAAGCTTTTTCTTCTATATCCTCAGATTGGCAGTGAGAGGAGATTTTGTTCGTGGTGTTGGCTGGCCTACTGGGTGGGGTAGGGATCCGGACTGAATCCGTAGTATTTCGGTACAACATTTGGGGGCTCGTCCGGGATTCCTCCCCATCGGCAGAGGTGCCTACTGTTTCTTCGAACTCCGGCGCCGGTAAGTAAGTACTTGATTTTGGTACCTCGCGAGGGTTTGGGAGGATCGGAGTGGCGGGACGCTGCCGGGAAGCTCCACCTCCGCTCAGCAGGGGACGCCCTGGTCTGAGCTCTGTGGTATCTGATTGTTGTTGAACCGTCTCTAAGACGGTGATACTATAAGTCGTGGTTTGTGTGTTTGTTTGTTACCTTGTGTTTGTTCGTCACTTGTCGACAGCGCCCTGCGAATTGGTGTACCCACACCGCGCGGCTTGCGAATAATACTTTGGAGAGTCTTTTGCCTCCAGTGTCTTCCGTTTGTACTCGTCCTCCTCTCCCTCTCCGGCCGGGATGGG
The molecule B1 yielded an Expression of 9.44E+04.

B2: Cosavirus B1 (nucleic acid, listed as Cosavirus sp.)
DNA: CGTGCTTTACACGGTTTTTGAACCCCACACCGGCTGTTTGGCGCTTGCAGGACAGCAGGTTTATTTTCTTTTAACTCTCTCTTTCTAGCCACACACGATCTATGTGTGTGGGCGGAGTGATACTCCCGTTCCTTCTTGGACAGGCGGCCTCCACGCCCTTTGTGGATCTTAAGGCTACCAAGTCACTGGTGTTGGAAAGTGAAGAGAAAGGAGTTCCTTGGGAACTACATGTGGCATTGACAGAGGTTGTAGCGATGCTGTGTGTGTGTGCGGATTACCCCCGTGGCGACACGGACCCCACAGGCCAAAAGCCCTGTCCGAAAGGACCCACACAGTGGAGCAACCCCAGCTCCCCTCTTCAATGTTTTGTGTTAGCAACCTTGGTATTATTTTCTCTCAAGCTTCCAATACACCGGGCCCCAAAGATGTCCTGAAGGTACCCCGTGTATCTGAGGATGAGCACCATCAACTACCCGGACTTGTTCTTTCGAGAACAGACGCATGTGGTAACCCAGCCCCGATCCTAAGGGGTCGGGGCTTTTGCTCACTCAGCACAGGATCTGATCAGGAGACCTCCCCCCCCTGCTTTACAGGGGGCGGGGGTTTAAAAATTGCCCAAGGCCTGGCAAATAACCTAGGGGACTAGGTTTTCCTTTTTATTTTAAAGTTGTCAAT
In turn, B2 displayed an Expression of 1.91E+06.

B3: Cosavirus A SH1 (nucleic acid)
DNA: CCGTGCTTTACACGGTTTTTGAACCCCACACCGGCTGTTTGGCGCTTGCAGGACAGCAGGTTTATTTTCTTATGCTCTTTATTTCTAGCCAACAGGGTTCTATCCTGTTGGGCGGAGTGATACTCCCGTTCCTTCTTGGACAGATTGCCTCCACGATCTTTGTGGATCTCAAGGTGATCAAGTCACTGGTAAATAGAGCGAAGGTTGAGGAAACCTGAGGAATTTCCATGTGGTTTTGCCAGGAGTTGTAGCGATGCTGTGTGTGTGTGCGGATTTCCCCTCATGGCAACATGAGCCTCACAGGCCAAAAGCCCTGTCCGAAAGGACCCACACAGTGGAGCAATCCCAGCTCCCTCCTACAAAGCTTTGTGAGAATGAACTCACGTTTATTCTTCTTTATTCTCTGTTTACATCAGGCCCCAAAGATGTCCTGAAGGTACCTTGTGTATCTGGGCATGAGCACCATCAACTACCCGGACTTGCATTTCGGTGCAGACACATGTGGTTACCCAGCCCCTCTGCTTTGGCAGAGGGGCTTTTGCTCGCTCAGCACGAGATCTGATCAGGAGCCCTTCCCAGTGTGCTTTACACCTGGCGGGGGGTTAAAAATTGCCCAAGGCCTGGCAAAATAACCTAGGGGACTAGGTTTTCCTTTTATTAACAATGTCTGTCATT
modifications: Cosavirus A
B3 came in with an Expression of 2.16E+06.

B4: Cosavirus D1 (nucleic acid, listed as Cosavirus sp.)
DNA: CGTGCTTTACACGGTTTTTGAACCCCACACCGGCTGTTTGGCGCTTGCAGGACAGTAGGTATATTTTCTTTCATTTCTCTTTTCTAGCCGCGTAGGTTCTATCTACGCGGGCGGAGTGATACTCCCGCTCCTTCTTGGACAGGCGGCCTCCACGCTCTTTGTGGATCTTAAGGCTGCCAAGTCACTGGTGTTTGAAGTGAAGAATGGAGAGACACTAGGGCGTTTCATGTGGCTTTGCCAGGGATTGTAGCGATGCTGTGTGTGTGTGCGGATTTCCCCTCGTGGCGACACGAGCCTCACAGGCCAAAAGCCCTGTCCGAAAGGACCCACACAGTGGGGTTGCCCCGACCCCTCCCTTCAAAGCTTTGTGTAAACAAACTTTTGTTTAGACTTTCTTAAGCTTCTCTCACATCAGGCCCCAAAGATGTCCTGAAGGTACCCTGTGTATCTGAGGATGAGCACCACCAACTACCCGGACTTGTGGGACGTGTCCCACAGACGCATGTGGTATTCCAGCCCCCTCCTTTTGAGGAGGGGGCTTTTGCTCGCTCAGCACAGGATCTGATCAGGAGATTCATCTCTGGTGCTTTACACCAGAGCATGGATTTAAAAATTGCCCAAGGCCTGGCAAACAACCTAGGGGACTAGGTTTTCTCTATTTTAAAAGATGTCAAT
Molecule B4 had an Expression of 2.11E+06.

B5: TRV NGS910 (nucleic acid)
DNA: ATGCGACGTGGTTGGAGATTAAACCGACTCCGACGAAAGTGCTATCATGCCTCCCCGATTATGTGATGTTTTCTGCCCTGCTGGGCGGAGCATTCTCGGGTTGATACACCTTGAATCCTTCATCCTTGGACCTCAGGTCCCCCGGTCTAAGCCGCTTGGAATACGACAGGGTTATTTTCCAATCTTCTCCTTTCTACTTTCATGAGTCCTATTCATGAAAAGGGTCTGTGCTGCCCCTTCCTTCTTGGAGAATCTGCGCGGCGGTCTTTCCGTCTCTCGAAAAGCGCAGATGCAGCATGCTGGAACCGGTGAAGAAAACAGTTCTTTGTGGAAACTTAGAGCAGACATCGAAACAGCTGTAGTGACCTCACAGTAGCAGCGGAACCCCCTCCTGGTAACAGGAGCCTCTGCGGCCAAAAGCCCCGTGGATAAGATCCACTGCTGTGAGCGGTGCAACCCCAGCACCCTGGTTCGATGGTTGTTCTCTGTGGAACCAGAGAATGGTCTTTCTCAAGCCCTCCAGTAGAGAAGCCAAGAATGTCCTGAAGGTACCCCGCATGCGGGATCTGATCAGGAGACCAATCGTCAGTGCTTTACACTGGCGCTTTGGTTTAAAAACTGTCACAGCTTCTCCAAACCAAGTGGTCTTGGTTTTCACTTTTATCAAACTGTTTC
The molecule B5 had an Expression of 3.84E+07.

B6: Malagasivirus B (nucleic acid)
DNA: CTTTATTTTCTTATGTAACTCTTCTTTTTAAGTTTTATTTTGCCTACTTGTGAGCTTATGCGGGACCACTGTCTTAGACAACCCCACATTTGTCATGAGTAAGTACACGCAACCATTACGATTACTTTTTAACCGTCTGACCTTTTGATAACAACTGAAGTTAGGCGTGAAACATGCATTTATACCAAAGTAGCCCCGCATTTCCCCACTACGGTGGGGGGGCTACCCTACTGGCTTTGGAACTGTAGCCATTATGTGTTGCCTGGCTTTCAGGATCTCACAACACAACAGTTCTCTCACAATGGAATATGGGTGAGATTGCAGTGACATGAACAAGTATCTAGTAGTACATAGACTCAAGCCTAGTTGCCTGCGGAACAACATGTGGTAACACATGCCCCAGGGTCCAAAAGACAAGGGTTAACAGCCCCTTCTAGGTGTCTGTGTGTGAAGAATACTTTAGTAGTGTTGTTATGATCTCACCTGTTAGTACAGAATGAGTATGGCTTGGTGAAGGATGTCCTACAGGTACCCATTATATGGATCTGAGTAGGAGACCACTAGTGGTGGCTTTACCGCCAGGTGAGTGGTTTAAAAAGCGTCTAGCCAAGCCAACAGCACTAGGGATAGTGCTTTCTATATTTTATATTTTCAGTGTAT
modifications: Malagasivirus B
The molecule B6 came in with an Expression of 5.05E+06.

B7: EMCV2 RD1338 (nucleic acid)
DNA: AAATACTGGTCGAAACCGCTTGGGATAAGACCGGGGTTTGTTAATGTCTCAATGTTATTCTCCACCCAATTGACGTCTTTTGTCAATTGGAGGGCAGTGAAACCTTGCCCTTGCTTCTTGCAGAGGATTCCCAGTGGTCTTTCCGCTCTCGACAAGGGAATTCATGATCCACCAAAAGTTGTGAAGAGAGCAGGTCCCATGGAAGCTTTCTGACGACTGATGATGACTGTAGCGACCCTTTGCAGGCAGCGGACCCCCCCACCTGGTGACAGGTGCCTCTGCGGCCAAAAGCCACGTGTTTAACAGACACCTGCAAAGGCGGCACAACCCCAGTGCCTCATCAAAAGTCTGATGACTGTGGAAATAGTCAACCGGCTTTTCTTAAGCAAATTTGGTGTCGGGGCTGAAGGATGCCCGGAAGGTACCACACTGGTTGTGATCTGATCCGGGGCCACAGTACATGTGCTTTACACATGTAGCTGCGGTTAAAAAACGTCTAGGCCCCCCGAACCACGGGGACGTGGTTTTCCTTTGAAAACCACGATTACAAT
B7 had an Expression of 1.97E+06.

B8: EMCV1 AnrB-3741 (nucleic acid)
DNA: ATGTGGTCGAAGCCACTTGGAATAAGACCGGCGTGCGCTTGTCTATATGTTACTTCCACCACATTGCCGTCTTTTGGCAATGTGAGGGCCCGGAACCTGGCCCTGTCTTCTTGACGAACATTCCTAGGGGACTTTCCCCTCTCGCCAAAGGAATGTAAGGTCTGTTGAATGTCGTGAAGGAAGCAGTTCCTCTGGAAGCTTCTTGAAGACAAACAGCGTCTGTAGCGACCCTTTGCAGGCAGCGGAACCCCCCACCTGGTAACAGGTGCCTCTGCGGCCGAAAGCCACGTGTATAAGATACACCTGCAAAGGCGGCACAACCCCAGTGCCACGTTGTGCGTTGGATAGTTGTGGAAAGAGTCAAATGGCTTTCCCCAAGCGTATTCAACAAGGGGCTGAAGGATGCCCAGAAGGTACCCCACTGGTTGGGATCTGATCTGGGGCCTCGGTGCAGGTGCTTTACACCTGTTGAGTCGAGGTTAAAAAACGTCTAGGCCCCCCGAACCACGGGGACGTGGTTTTCCTAGAAAACCACTATGACAAT
For B8, the Expression was 2.55E+06.

B9: Mosavirus A2 SZAL6 (nucleic acid, listed as Mosavirus sp.)
DNA: CCCCCCCCTCAAATTGCAACGATATAGCTAATGGCGAGATTGAGATGCTATATCACCTCTTCTAAGTTATAGACCTCATCTGATTGATAAGGACGTAATTTGGTCGAAACCGCTTGGAATAAGACCGATGCGCGTAGTCATGATGATGATGTAAGATCTAGGAACTTATCCAATCTGCTTATGTCTATGTAAGTAGAGGGGCAGGCCTCATTGCCCTAATTCTTTCTACCGAGTATCTGCTAGGGTTTCTAGCGGCTTGAATACTTGGATTGAGGGATACAAGATACTACTGATCGATTGTCGATTGGGAAACTTGTAGATACTTCAAAGCTACCAGTAGCGTGGACTCACAGCCAGCGGACTACCCCTCATGGTAACATGAGCCTCTGGGCCCACAAGGCACGTCGCAAGACCTGTGAGACGGCAACCCCAGCCTAGCTTTGTTGAGGAAACAAGCGATAACATGACATGAGAGACCGGAAGGATTCTTGTATTGTGAGCCGAAGGATGGCCTCTAGGTACCTCATTTTATGAGATCTGAGGAGGTGCTCTTGAGTTGGTGCTTTACACTGACAACACAGAGTTAAAAAGCGTCTAAGCTCACCCGGAAATTGGGAAATTTCCGTTATTTCCATTTTGTTTGCAAAGTCGTTC
Consider B9, for which the Expression was 8.27E+06.
